Laboratory results as given in patent US6676943.

Target: human complement protein C3, P01024
Sequence (P01024 whole entry, looked up): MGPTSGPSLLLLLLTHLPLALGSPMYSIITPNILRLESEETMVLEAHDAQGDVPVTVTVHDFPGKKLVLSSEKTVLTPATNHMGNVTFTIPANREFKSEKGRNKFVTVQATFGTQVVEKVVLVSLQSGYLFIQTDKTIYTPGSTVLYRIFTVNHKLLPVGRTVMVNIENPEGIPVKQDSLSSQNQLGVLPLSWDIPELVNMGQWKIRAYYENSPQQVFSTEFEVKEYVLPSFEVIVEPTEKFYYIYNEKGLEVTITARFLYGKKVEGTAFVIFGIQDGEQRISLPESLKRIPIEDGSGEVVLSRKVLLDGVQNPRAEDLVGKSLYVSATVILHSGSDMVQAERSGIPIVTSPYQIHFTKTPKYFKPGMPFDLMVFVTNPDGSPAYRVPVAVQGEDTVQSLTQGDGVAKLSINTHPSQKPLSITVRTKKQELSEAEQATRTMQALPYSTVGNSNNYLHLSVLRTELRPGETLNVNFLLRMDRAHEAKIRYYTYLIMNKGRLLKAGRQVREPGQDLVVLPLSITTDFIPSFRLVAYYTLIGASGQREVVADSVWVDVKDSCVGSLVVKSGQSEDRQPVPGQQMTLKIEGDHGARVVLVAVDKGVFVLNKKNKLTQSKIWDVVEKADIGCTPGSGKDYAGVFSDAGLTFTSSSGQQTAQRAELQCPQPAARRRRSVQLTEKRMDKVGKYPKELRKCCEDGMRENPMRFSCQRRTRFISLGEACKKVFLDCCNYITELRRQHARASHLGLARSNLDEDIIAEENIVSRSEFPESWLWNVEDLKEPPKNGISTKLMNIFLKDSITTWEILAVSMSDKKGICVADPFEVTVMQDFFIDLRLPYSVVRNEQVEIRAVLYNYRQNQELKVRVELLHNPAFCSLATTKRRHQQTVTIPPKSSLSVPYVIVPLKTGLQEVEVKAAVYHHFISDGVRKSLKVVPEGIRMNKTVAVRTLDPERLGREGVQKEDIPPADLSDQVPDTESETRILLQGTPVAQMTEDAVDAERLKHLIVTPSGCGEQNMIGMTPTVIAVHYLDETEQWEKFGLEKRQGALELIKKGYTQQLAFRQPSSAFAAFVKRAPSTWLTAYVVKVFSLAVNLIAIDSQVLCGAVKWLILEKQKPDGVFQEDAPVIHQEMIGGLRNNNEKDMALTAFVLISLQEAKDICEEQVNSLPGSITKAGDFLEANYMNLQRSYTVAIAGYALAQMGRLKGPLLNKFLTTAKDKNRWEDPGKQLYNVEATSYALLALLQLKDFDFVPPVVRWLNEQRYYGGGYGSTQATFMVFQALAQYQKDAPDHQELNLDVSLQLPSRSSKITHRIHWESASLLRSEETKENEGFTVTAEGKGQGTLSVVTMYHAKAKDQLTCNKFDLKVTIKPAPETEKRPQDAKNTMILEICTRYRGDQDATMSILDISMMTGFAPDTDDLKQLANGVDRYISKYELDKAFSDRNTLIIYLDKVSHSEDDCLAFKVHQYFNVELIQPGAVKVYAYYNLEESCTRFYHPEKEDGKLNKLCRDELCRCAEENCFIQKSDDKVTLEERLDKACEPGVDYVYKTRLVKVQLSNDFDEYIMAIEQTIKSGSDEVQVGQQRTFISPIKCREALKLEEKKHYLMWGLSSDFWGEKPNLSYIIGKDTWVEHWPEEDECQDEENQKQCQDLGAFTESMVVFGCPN

B1: His-tagged CppA protein (recombinant C3-degrading proteinase of Streptococcus pneumoniae encoded by ORF3 / cppA) (protein)
chain: MNVNQIVRIIPTLKANNRKLNETFYIETLGMKALLEESAFLSLGDQTGLEKLVLEEAPSMRTRKVEGRKKLARLIVKVENPLEIEGILSKTDSIHRLYKGQNGYAFEIFSPEDDLILIHAEDDIASLVEVGEKPEFQTDLASISLSKFEISMELHLPTDIESFLESSEIGASLDFIPAQGQDLTVDNTVTWDLSMLKFLVNELDIASLRQKFESTEYFIPKSEKFFLGKDRNNVELWFEEV
C3 degradation (4 hrs at 37 C in PBS; reducing SDS-PAGE and Western Blot with polyclonal anti-C3): the protein degraded human C3 protein. Both α and β chains of C3 molecules were susceptible to degradation
C3 degradation (4 hrs at 37 C in PBS; reducing SDS-PAGE and Western immunoblotting with polyclonal anti-C3): the samples that contained the expressed protein degraded C3 molecules ... the α chain was almost completely degraded while the β chain was partially degraded in the ORF3 samples
